According to patent publication US20170087188A1, “WNT INDUCED MOTILITY AND ENHANCED ENGRAFTMENT OF CELLS” (OTTAWA HOSPITAL RESEARCH INSTITUTE, priority 2014, published 2017):
“Also recorded” adds a separate entry of the source.

Tests used:
satellite cells = assay: Live imaging of satellite cells on single cultured myofibers; type: cell-based, mouse; details: Wnt7a 1.5 μg/mL; compared to Veh.
Procedure: The effect of Wnt7a on satellite cell migration was measured using a time lapse imaging technique previously employed to monitor satellite cells on single muscle myofibers (Siegel et al., 2009). Wnt7a increased the mean velocity of satellite cells by 31% when compared to Veh. (FIG. 2F). […] (FIG. 2G).
Single cell imaging of cells transfected with Fzd7-YFP or YFP was performed on an LSM710 confocal microscope under 5% CO2 at 37° C. in phenol-red free DMEM (Life technologies) containing 10% FBS. Imaging of satellite cells on fibers was performed as described (Siegel et al., 2009). For live imaging of satellite cells on myofibers, Wnt7a was used at a concentration of 1.5 μg/mL. Satellite cell time-lapse microscopy was performed using a Leica DMI 5100 inverted microscope and MetaMorph 7.6.1 Software (Molecular Devices) with time points being acquired every 7 minutes in a stagetop incubator (LiveCell Imaging). ImageJ analyzed the time-lapse data to calculate the velocity, defined as distance (um)/time (hr), between time points and the average velocity of each cell was calculated. The maximum velocity is defined as the highest velocity obtained by a single cell during the tracking period.

[1] = system: Rac1 association with Dvl2; assay: Co-IP of Rac1 with Dvl2 in primary myoblasts; type: cell-based, mouse; details: Wnt7a stimulated (infected) primary myoblasts vs EV
Source text: Wnt7a signaling in satellite cells involves Rac1. Polarized peripheral Fzd7-tdTomato colocalized with GFP-Rac1 in C2C12 cells (FIG. 3A). It was hypothesized that the small GTPase Rac1 might also be involved in Wnt7a mediated cell polarization and migration. […] Various forms of Wnt signaling require Disheveled (Dvl) proteins.
For co-immunoprecipitation (CoIP) experiments and the Rac1 activation assay, satellite cell-derived primary myoblasts were infected with retroviruses generated from empty pHAN or from pHAN-Wnt7a-HA (Kuroda et al., 2013). Dvl2 knockdown was performed with an ON-TARGETplus siRNA SMARTpool (L-040921-01, Thermo Fisher Scientific) (Wu et al., 2008) using Lipofectamine RNAiMAX (Life Technologies) according to the manufacturer's instructions. As a control for the knockdown, a non-silencing siRNA SMARTpool was used (D-001810-10, Thermo Fisher Scientific). Cell extracts were obtained through RIPA buffer lysis in the presence of a protease inhibitor cocktail (Nacalai). For CoIP of Rac1 with Dvl2, rabbit anti-Dvl2 antibody was coupled to Protein A Dynabeads (Life Technologies). Denaturing SDS-PAGE was performed using standard techniques. Rac1 activation assay was performed according to the manufacturer's instructions (Pierce).

Fzd7 = assay: Subcellular distribution of Fzd7-YFP in primary myoblasts; type: cell-based; details: Wnt7a stimulated vs controls
Procedure: The effect of Wnt7a treatment on the subcellular distribution of Fzd7 was tested. […] Furthermore, it was observed that myoblasts exposed to conditioned medium containing HA epitope tagged Wnt7a (Wnt7a-HA) quickly endocytosed this factor. After 3 h of incubation and several subsequent washing steps, endocytosed Wnt7a-HA was detectable for ≧72 h in intracellular structures in primary myoblasts (FIG. 4E) and C2C12 cells (FIG. 11E).

β-catenin signaling = assay: TOP-flash luciferase reporter assay in C2C12 cells; type: cell-based; details: different concentrations
Procedure: Different concentrations of Wnt7a were tested to exclude a dose dependent effect on β-catenin signaling, as measured by induction of TOP-flash activity in C2C12 cells.
The UBC-Fzd7-Flag (Fzd7-Flag), CMV-Fzd7-EYFP (Fzd7-YFP), CMV-Fzd3-EYFP (Fzd3-YFP), CMV-EYFP (YFP), CMV-EGFP-Rac1-wt (GFP-Rac1, 12980, Addgene), CMV-EGFP-Rac1-T17N (Rac1-DN, 12982, Addgene), CMV-EGFP-RhoA-T19N (RhoA-DN, 12967, Addgene) and CMV-EGFP-Cdc42-T17N (Cdc42-DN, 12976, Addgene) constructs have been described previously (Bentzinger et al., 2013a; Subauste et al., 2000; von Maltzahn et al., 2011). The Fzd7-tdtomato plasmid was generated by replacing the C-terminal YFP in Fzd7-YFP with tdTomato. For TOP-flash and FOP-flash the TCF reporter plasmid kit (17-285, Millipore) was used with the dual-luciferase reporter assay system (E1960, Promega). For normalization pGL4.74[hRluc/TK] (E6921, Promega) was cotransfected. For TOP-flash and FOP-flash assays the cells were transfected with GenJet lipofection reagent (SL100499, SignaGen). Otherwise, Lipofectamine 2000 (11668019, Life Technologies) was used for transfections.

B1: Wnt7a: non-canonical Wnt polypeptide (R&D Systems) used to treat or load myogenic cells (protein, UniProt O00755 32-349, looked up)
Protein Wnt-7a: LGASIICNKIPGLAPRQRAICQSRPDAIIVIGEGSQMGLDECQFQFRNGRWNCSALGERTVFGKELKVGSREAAFTYAIIAAGVAHAITAACTQGNLSDCGCDKEKQGQYHRDEGWKWGGCSADIRYGIGFAKVFVDAREIKQNARTLMNLHNNEAGRKILEENMKLECKCHGVSGSCTTKTCWTTLPQFRELGYVLKDKYNEAVHVEPVRASRNKRPTFLKIKKPLSYRKPMDTDLVYIEKSPNYCEEDPVTGSVGTQGRACNKTAPQASGCDLMCCGRGYNTHQYARVWQCNCKFHWCCYVKCNTCSERTEMYTCK
Q: What does the source list for B1?
A: higher directional persistence (satellite cells): 36%; increase in mean velocity of satellite cells (satellite cells): 31%; mean maximal velocity (satellite cells): not significantly different; also recorded: not substantially different; Rac1 association with Dvl2 [1]: increased Rac1 association with Dvl2; subcellular distribution of Fzd7-YFP (Fzd7): decreases the abundance of peripheral Fzd7-YFP; also recorded: higher abundance of large intracellular aggregates and reduced peripheral Fzd7-YFP; TOP-flash reporter activity (β-catenin signaling): does not activate the TOP-flash reporter at any tested concentration; also recorded: did not increase TOP-flash reporter activity
